Data set [1] addresses T1, Csa5 (Csa5b) WT (Thermoproteus tenax Kra1) (UniProt G4RJZ0).
T1 sequence: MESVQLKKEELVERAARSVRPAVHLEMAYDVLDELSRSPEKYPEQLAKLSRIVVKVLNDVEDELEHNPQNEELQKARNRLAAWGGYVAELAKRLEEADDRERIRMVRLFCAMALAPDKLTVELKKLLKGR
Briefly: EMSA. The note with it: EMSA: 100 mM HEPES/KOH pH 7, 10 mM beta-mercaptoethanol, 37 C 30 min, 6% native TBE PAGE; MST: 50 mM Tris-HCl pH 7.4, 150 mM NaCl, 0.05% Tween-20, 37 C 30 min …. A general note: A gel shift assay detects complexes by their altered migration in electrophoresis.

The target in data set [2] is T2, Csa5 (Csa5b) WT (Thermoproteus tenax Kra1, UniProt G4RJZ0 1-130).
T2 sequence: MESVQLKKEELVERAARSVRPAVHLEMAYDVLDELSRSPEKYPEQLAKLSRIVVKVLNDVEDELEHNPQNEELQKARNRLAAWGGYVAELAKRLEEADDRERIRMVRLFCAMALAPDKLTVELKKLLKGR
As to the kind of experiment: EMSA; 3.75-60 uM Csa5; EMSA: 100 mM HEPES/KOH pH 7, 10 mM beta-mercaptoethanol, 37 C 30 min, 6% native TBE PAGE; MST: 50 mM Tris-HCl pH 7.4, 150 mM NaCl, 0.05% Tween-20, 37 C 30 min. The note with it: protein: recombinant; tags: none stated (pET24a); label: 5' 32P.

For data set [3], the target named is T2, Csa5 (Csa5b) WT. Briefly: EMSA; 7-fold weaker than NT DNA; EMSA: 100 mM HEPES/KOH pH 7, 10 mM beta-mercaptoethanol, 37 C 30 min, 6% native TBE PAGE; MST: 50 mM Tris-HCl pH 7.4, 150 mM NaCl, 0.05% Tween-20, 37 C 30 min. The note with it: protein: recombinant; tags: none stated (pET24a); label: 5' 32P.
Data set [4] has as its target T2, Csa5 (Csa5b) WT. Briefly: EMSA; 15 uM Csa5; EMSA: 100 mM HEPES/KOH pH 7, 10 mM beta-mercaptoethanol, 37 C 30 min, 6% native TBE PAGE; MST: 50 mM Tris-HCl pH 7.4, 150 mM NaCl, 0.05% Tween-20, 37 C 30 min. The note with it: protein: recombinant; tags: none stated (pET24a); label: 5' 32P.
For data set [5], the target named is T2, Csa5 (Csa5b) WT. As to the kind of experiment: EMSA; duplex formed with 1000x cold crRNA; 15 uM Csa5; EMSA: 100 mM HEPES/KOH pH 7, 10 mM beta-mercaptoethanol, 37 C 30 min, 6% native TBE PAGE; MST: 50 mM Tris-HCl pH 7.4, 150 mM NaCl, 0.05% Tween-20, 37 C 30 min. As to conditions: protein: recombinant; tags: none stated (pET24a); label: 5' 32P on DNA.
Data set [6] concerns the target T2, Csa5 (Csa5b) WT. Briefly: MST; Tris pH 7.4, 150 mM NaCl; no metal; EMSA: 100 mM HEPES/KOH pH 7, 10 mM beta-mercaptoethanol, 37 C 30 min, 6% native TBE PAGE; MST: 50 mM Tris-HCl pH 7.4, 150 mM NaCl, 0.05% Tween-20, 37 C 30 min. As to conditions: protein: recombinant; tags: none stated (pET24a); label: 5' Cy3.
The target of data set [7] is T3, Thermoproteus tenax Cas8a2 (Thermoproteus tenax, UniProt G4RJZ5 1-361).
T3 construct: also called large subunit
T3 sequence (looked up): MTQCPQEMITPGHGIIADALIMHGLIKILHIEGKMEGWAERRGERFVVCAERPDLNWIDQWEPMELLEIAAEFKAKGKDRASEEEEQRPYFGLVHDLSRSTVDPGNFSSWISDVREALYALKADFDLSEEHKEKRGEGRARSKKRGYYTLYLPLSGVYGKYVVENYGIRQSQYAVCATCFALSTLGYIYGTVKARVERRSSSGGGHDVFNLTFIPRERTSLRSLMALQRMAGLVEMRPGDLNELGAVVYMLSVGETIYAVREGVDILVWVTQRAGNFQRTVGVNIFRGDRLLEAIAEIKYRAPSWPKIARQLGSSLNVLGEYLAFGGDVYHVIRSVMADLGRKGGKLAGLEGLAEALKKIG
As to the kind of experiment: co-refolding reconstitution, soluble fraction by SDS-PAGE; 300 µg of each GdmCl-solubilized Cas5a, Cas3′, Cas3″ and Cas8a2 mixed with purified Cas7 and a Csa5 variant, co-refolded by stepwise dialysis into GdmCl-free buffer; aggregates precipitated (14,000×g, 30 min, 4°C), soluble proteins concentrated and analysed by SDS-PAGE. As to conditions: both partners purified.

In data set [8] the target is T4, Thermoproteus tenax Cas5a (Thermoproteus tenax, UniProt G4RJZ2 1-226).
T4 sequence (looked up): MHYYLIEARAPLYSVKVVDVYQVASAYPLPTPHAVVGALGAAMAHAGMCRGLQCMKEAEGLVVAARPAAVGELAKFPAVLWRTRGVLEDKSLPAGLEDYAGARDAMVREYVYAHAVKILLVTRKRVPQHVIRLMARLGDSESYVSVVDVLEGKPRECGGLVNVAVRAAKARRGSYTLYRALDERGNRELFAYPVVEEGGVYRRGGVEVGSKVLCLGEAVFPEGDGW
The data set is described as above. As to conditions: both partners purified.

The next data set deals with T5, Thermoproteus tenax Cas7 (Thermoproteus tenax, UniProt G4RJZ1 1-329).
T5 sequence (looked up): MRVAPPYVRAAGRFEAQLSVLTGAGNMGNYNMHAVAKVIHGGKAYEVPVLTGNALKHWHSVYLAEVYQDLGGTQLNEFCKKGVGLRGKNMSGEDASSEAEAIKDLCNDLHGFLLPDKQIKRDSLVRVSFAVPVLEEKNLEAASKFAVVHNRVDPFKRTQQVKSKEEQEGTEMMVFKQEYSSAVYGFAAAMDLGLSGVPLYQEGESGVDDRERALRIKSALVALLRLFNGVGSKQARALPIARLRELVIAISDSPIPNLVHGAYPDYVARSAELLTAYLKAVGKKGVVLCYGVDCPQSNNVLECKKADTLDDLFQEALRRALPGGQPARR
Described as above. The note with it: both partners purified.

For data set [9], the target named is T2, Csa5 (Csa5b) WT. As to the kind of experiment: EMSA; no difference from AGG-PAM; EMSA: 100 mM HEPES/KOH pH 7, 10 mM beta-mercaptoethanol, 37 C 30 min, 6% native TBE PAGE; MST: 50 mM Tris-HCl pH 7.4, 150 mM NaCl, 0.05% Tween-20, 37 C 30 min. As to conditions: protein: recombinant; tags: none stated (pET24a); label: 5' 32P.
Data set [10] addresses T2, Csa5 (Csa5b) WT. Briefly: EMSA; no difference from GAG-PAM; EMSA: 100 mM HEPES/KOH pH 7, 10 mM beta-mercaptoethanol, 37 C 30 min, 6% native TBE PAGE; MST: 50 mM Tris-HCl pH 7.4, 150 mM NaCl, 0.05% Tween-20, 37 C 30 min. The note with it: protein: recombinant; tags: none stated (pET24a); label: 5' 32P.

“GTCGACTAATACGACTCACTATAGGCCTATCGCTTGTCCAACCGGGCTCCTCTATATGTCGTCATTAGCTTACCGCTGAGCAATAACTAGCAAGCTT (double strand) [NT/T dsDNA 97 bp]” returned a binding signal (fold weaker than ssDNA) in data set [1] of 14.

B1: CCA-PAM poly-PAM ssDNA (ssDNA)
DNA: AAAACCAAAACCAAAACCAAAACCAAAACCAAAACCAAAACCAAAACCAAAACCAAAACCAAAACCAAAACCAAAACCAAAACCAAAACCAAAACCAAAA
As for B1, the binding result with Csa5 (Csa5b) WT [2] is on record as “binds”. With ATCGCTTGTCCAACCGGGCTCCTCTATATGTCGTCATT (ssDNA) [p2 (38 nt)], the binding signal in the data set with Csa5 (Csa5b) WT [3] worked out at 12 % bound at 15 uM. As for CGTCATTAGCTTACCGCTGAGCAATAACTAGCAAGCTT (ssDNA) [p3 (38 nt)], in the data set with Csa5 (Csa5b) WT [3], the binding signal was determined as 12 % bound at 15 uM.

B2: CAC-PAM disrupted poly-PAM ssDNA (ssDNA)
DNA: AAAACACAAACACAAACACAAACACAAACACAAACACAAACACAAACACAAACACAAACACAAACACAAACACAAACACAAACACAAACACAAACACAAA
Regarding B2, the binding result in the data set with Csa5 (Csa5b) WT [2] was “binds”.

B3: target (T) ssDNA 97 nt (ssDNA)
DNA: AAGCTTGCTAGTTATTGCTCAGCGGTAAGCTAATGACGACATATAGAGGAGCCCGGTTGGACAAGCGATAGGCCTATAGTGAGTCGTATTAGTCGAC
Regarding B3, the binding result with Csa5 (Csa5b) WT [4] is recorded as “binds”.

B4: T DNA:crRNA hybrid (DNA:RNA)
DNA: AAGCTTGCTAGTTATTGCTCAGCGGTAAGCTAATGACGACATATAGAGGAGCCCGGTTGGACAAGCGATAGGCCTATAGTGAGTCGTATTAGTCGAC
RNA: AUUGAAAGAUCGCUUGUCCAACCGGGCUCCUCUAUAUGUCGUCAUUAGCUUAGA
For B4, the binding result with Csa5 (Csa5b) WT [5] was “no binding”.

B5: Cy3-non-target ssDNA 80 nt (ssDNA)
DNA: CGACTCACTATAGGCCTATCGCTTGTCCAACCGGGCTCCTCTATATGTCGTCATTAGCTTACCGCTGAGCAATAACTAGC
With B5, the Kd (as a rule, the free concentration of one partner at which half of the binding sites on the other are occupied at equilibrium, for simple one-to-one binding) with Csa5 (Csa5b) WT [6] stood at 6.49 µM.

B6: Thermoproteus tenax Csa5 wild type (TTX_1250) (natural protein, Thermoproteus tenax Kra1, UniProt G4RJZ0 1-130, looked up)
chain: MESVQLKKEELVERAARSVRPAVHLEMAYDVLDELSRSPEKYPEQLAKLSRIVVKVLNDVEDELEHNPQNEELQKARNRLAAWGGYVAELAKRLEEADDRERIRMVRLFCAMALAPDKLTVELKKLLKGR
notes: Csa5 (Csa5b), small subunit of the type I-A Cascade, Thermoproteus tenax Kra1, locus TTX_1250; theoretical mass of the monomer 15.04 kDa; no tag is named and the purification uses none; also called Csa5 WT; Csa5b; source: E. coli Rosetta(DE3)pLysS, purified (heat precipitation 90°C, Blue-Sepharose, MonoQ)
In the case of B6, the binding result (in data set [7]; in data set [8]; in the data set with Thermoproteus tenax Cas7) was “binds” in each case.

B7: Thermoproteus tenax Csa5 D30A/D33A (natural protein, Thermoproteus tenax Kra1, UniProt G4RJZ0 1-130, looked up)
chain: MESVQLKKEELVERAARSVRPAVHLEMAYAVLAELSRSPEKYPEQLAKLSRIVVKVLNDVEDELEHNPQNEELQKARNRLAAWGGYVAELAKRLEEADDRERIRMVRLFCAMALAPDKLTVELKKLLKGR
notes: Made by site-directed mutagenesis of the pET24a csa5 construct; source: E. coli Rosetta(DE3)pLysS, purified (heat precipitation 90°C, Blue-Sepharose, MonoQ)
B7: the binding result (in data set [7]; in data set [8]; with Thermoproteus tenax Cas7) was “binds” each time.

B8: Thermoproteus tenax Csa5 D33A (natural protein, Thermoproteus tenax Kra1, UniProt G4RJZ0 1-130, looked up)
chain: MESVQLKKEELVERAARSVRPAVHLEMAYDVLAELSRSPEKYPEQLAKLSRIVVKVLNDVEDELEHNPQNEELQKARNRLAAWGGYVAELAKRLEEADDRERIRMVRLFCAMALAPDKLTVELKKLLKGR
notes: as for B7
On to B8, for which the binding result (in data set [7]; in [8]; in the data set with Thermoproteus tenax Cas7) was “binds” in each case.

B9: Thermoproteus tenax Csa5 Y29A (natural protein, Thermoproteus tenax Kra1, UniProt G4RJZ0 1-130, looked up)
chain: MESVQLKKEELVERAARSVRPAVHLEMAADVLDELSRSPEKYPEQLAKLSRIVVKVLNDVEDELEHNPQNEELQKARNRLAAWGGYVAELAKRLEEADDRERIRMVRLFCAMALAPDKLTVELKKLLKGR
notes: as for B7
As for B9, the binding result (in data set [7]; in [8]; in the data set with Thermoproteus tenax Cas7) was “binds” in each case. For the molecule GTCGACTAATACGACTCACTATAGGCCTATCGCTTGTC (ssDNA) [p1 (38 nt)], the binding signal with Csa5 (Csa5b) WT [3] worked out at 12 % bound at 15 uM.

B10: GAG-PAM disrupted poly-PAM ssDNA (ssDNA)
DNA: AAAAGAGAAAGAGAAAGAGAAAGAGAAAGAGAAAGAGAAAGAGAAAGAGAAAGAGAAAGAGAAAGAGAAAGAGAAAGAGAAAGAGAAAGAGAAAGAGAAA
Regarding B10, the binding result with Csa5 (Csa5b) WT [9] is “binds”.

B11: AGG-PAM poly-PAM ssDNA (ssDNA)
DNA: AAAAGGAAAAGGAAAAGGAAAAGGAAAAGGAAAAGGAAAAGGAAAAGGAAAAGGAAAAGGAAAAGGAAAAGGAAAAGGAAAAGGAAAAGGAAAAGGAAAA
Take B11: in the data set with Csa5 (Csa5b) WT [10], the binding result was “binds”.

For the origin of these results see publication PMC4141822.
